B1: alcohol dehydrogenase (enzyme)
chain: MSIPETQKGVIFYESHGKLEYKDIPVPKPKANELLINVKYSGVCHTDLHAWHGDWPLPVKLPLVGGHEGAGVVVGMGENVKGWKIGDYAGIKWLNGSCMACEYCELGNESNCPHADLSGYTHDGSFQQYATADAVQAAHIPQGTDLAQVAPILCAGITVYKALKSANLMAGHWVAISGAAGGLGSLAVQYAKAMGYRVLGIDGGEGKEELFRSIGGEVFIDFTKEKDIVGAVLKATDGGAHGVINVSVSEAAIEASTRYVRANGTTVLVGMPAGAKCCSDVFNQVVKSISIVGSYVGNRADTREALDFFARGLVKSPIKVVGLSTLPEIYEKMEKGQIVGRYVVDTSK
notes: alcohol dehydrogenase (ADH), Sigma Aldrich A7011-15KU; native tetramer selected by mass; also called ADH; source: bought: Sigma Aldrich (A7011-15KU), used without further purification; desalted into 200 mM ammonium acetate
B2: apoferritin (natural protein, UniProt P02791 1-175, looked up)
chain: MSSQIRQNYSTEVEAAVNRLVNLYLRASYTYLSLGFYFDRDDVALEGVCHFFRELAEEKREGAERLLKMQNQRGGRALFQDLQKPSQDEWGTTLDAMKAAIVLEKSLNQALLDLHALGSAQADPHLCDFLESHFLDEEVKLIKKMGDHLTNIQRLVGSQAGLGEYLFERLTLKHD
notes: ferritin, Sigma Aldrich F4503-25MG; The sample held both apo- and holoferritin, and the 24-mer of apoferritin was selected by mass; PDB 7A6A, used for comparison of shapes, may be a recombinant ferritin of another species or chain; also called apo/holo-ferritin; source: bought: Sigma Aldrich (F4503-25MG), saline stock solution, used without further purification; desalted into 200 mM ammonium …

Target: the molecule itself
Assay: native MS; non-activating native electrospray on a Q Exactive UHMR; 200 mM ammonium acetate pH 6.9; 5 μM ADH, 10 μM β-gal, 8 μM ferritin, 5 μM GroEL (concentrations of the most abundant oligomers)

Protein	stoichiometry N
B1	4
B2	24
